Laboratory results as given in the DeepSol protein solubility set.

Assay: soluble on expression in E. coli; label from the status in PepcDB or PDB records

Sequence | soluble on expression in E. coli
MTSFDAIVIGGGHNGLVAAATLAKAGRKVLVLEAESEVGGAARTEEFAPGFRVSSIAHLLNRLHPDVVKTLELETHGLQFARADFLPSAALSKDGPALMLHGAYGEVLTGASPSEQSAWKDLRAQLLRYAGILKPFLTRRPPDLAGMSLMETASLGQTALALKKLGKEDMRDFLRVLLMNVADLLDEQLRDDRLKGLLAFDATLGSHLGPRSPTSLLGLYYRLAGEAGGAAGAQVLPQGGMGAVVAAIRAAAEKAGVTIRTSVAAAKIIVEKGHAVGVTLGTGEELRARTVVSAINPATTFLDLVGPREIDTGFVRKVKNIRMKGDAAKLHLALDRSPQFTGADAAAHKGRLVIAPSPDHVERAFNPCKYGEFSPEPVLEITLPSLADPSLAPDGACVLSAVVQYAPYALKEGWAAGKPKFIKAVMAQLEAYAPGIGKSVVHAELLTPADIETRYRMPGGHWHHGELQADQMLISRPVSGWSGYDTPVEGLFLAGAGSHPGGGVSGAPGLNAARRIIAMKGLEHHHHHH | soluble
MTSIEPTHTGKKVIVGMSGGVDSSVSAYLLMQQGYQVEGLFMKNWEEDDNDEYCAAAEDLKDAQAVCDKLGIKLHTVNFAAEYWDNVFEYFLAEYKAGRTPNPDIMCNKEIKFKAFLEFADDILDADYIAMGHYVRRRDNEDGTTQMLRGVDNNKDQSYFLYTLSHEQVARSLFPVGELEKHEVREIAKQMGLITHDKKDSTGICFIGERKFTEFLGNYLPAQPGNIETADGEVIGTHQGLMYHTLGQRKGLGIGGMKNSNDDPWYVVDKDLKRNVLVVGQGGHHPRLMSNGMLVNQLHWVDRKGPINGSQIVVKTRYRQQDIPCTLTYLDDNTLKVVFDEPVAAVTPGQSAVFYDGEVCLGGGIIDQLIRGLEHHHHHH | soluble
MTSIQQRAELQRRIWQIANDVRGTVDGWDFKQYVLGALFYRFISENFAAHMEAGDDGIRYAELPDSVITPELKDDAIKTKGYFIYPSQLFANVVARANTNDSLNTDLAAIFTAIESSANGYPSEQDIKGLFADFDTTSNRLGNTVKDKNQRLAAVLKGVAELDFGPFDDAHIDLFGDAYEFLISNYAANAGKSGGEFFTPQHVSRLIARLALHGQKSVNKIYDPACGSGSLLLQAKKPFDERLIEDGFFGQESNHTTYNLARMNMFLHNINYDKFNIQLGNTLLEPHFADEKPFDAIVSNPPYSVKWIGSDDPTLINDERFAPAGVLAPKSKADFAFVLHALHYLSAKGRAAIVCFPGIFYRGGAEAKIRQYLVDNNYVETVIALAPNLFFGTTIAVNILVLSKHKPDTTTQFIDASALFKKETNNNVLLDEHIEQIMAVFASKEEVPHVAQSVPLERIAANNYNLSVSSYVEARDTREVVDIAQLNAELKTTVARIDELRKQIDAIVAEIEGEEDEA | soluble
MTSLVVPGLDTLRQWLDDLGMSFFECDNCQALHLPHMQNFDGVFDAKIDLIDNTILFSAMAEVRPSAVLPLAADLSAINASSLTVKAFLDMQDDNLPKLVVCQSLSVMQGVTYEQFAWFVRQSEEQISMVILEANAHQLLLPTDDEGQNNVTENYFLH | soluble
MTSNQLAQYIDHTALTAEKNEQDISTLCNEAIEHGFYSVCINSAYIPLAKEKLAGSNVKICTVVGFPLGANLTSVKAFETQESIKAGANEIDMVINVGWIKSQKWDEVKQDIQAVFNACNGTPLKVILETCLLTKDEIVKACEICKEIGVAFVKTSTGFNKGGATVEDVALMKNTVGNIGVKASGGVRDTETALAMIKAGATRIGASAGIAIISGTQDTQSTYLEHHHHHH | soluble
MTSSAMDNNEPKVLEMVYDATILPECSGMDPSIIDCINRHINMRIQRSYSSNIIAILDRFLMMNKDELNNTQCHIIKEFMTYEQMAIDYYGGYVNAILYQIRKRPNQHHTIDLFKRIKRTRYDTFKVNPVEFVKKVIGFVSILNKYKPIYSYVLYENVLYDELKCFIDYVETKYFQN | not soluble
MTSSDQSPSHDVFVYGSFQEPAVVNLILECAPVMVSAQLHGYHLYRLKGRLHPCISPSDNGLINGKILTGLTDSQLESLDMIEGTEYVRKTVEVVLTDTLEKKQVETIVWANKDDPNMYGEWDFEEWKRLHMEKFIEAATKFMEWKKNPNGRSREEFEKFVQDDSSPASA | soluble
MTSVNKKRNARKNQEPTSNMTIETEDGTQADRPKKRPAKKRSKVVRRAAQYGDVNEPILRDFVKATIQTGVKQLSTEFLNLKMETQPCNKPKTGHEGHPEKNRYKDVYCIDDTRVVLKWPEDSPSDYIHANWVKINGANKFICTQGPTEKTVDDFYRLIWQEKAPCVVMLCNIMECGKKKCEQYWPETADGQMILMDGKLTVKIAEPAKEVEQNILLMKITVIDDKGTSHNFEHWQWKAWPDRGVPELPMALKTASPIVVHCSAGIGRTGSIVGLEIALVKFCAGEKVVLKDIVKEIRNQRHGSVQTDAQYLFMHRVLLALAENRKITSPELSAFVAEYDKVIATKNG | not soluble
MTTETRSLYSQLPAIDRLLRDSSFLSLRDTYGHTRVVELLRQMLDEAREVIRGSQTLPAWCENWAQEVDARLTKEAQSALRPVINLTGTVLHTNLGRALQAEAAVEAVAQAMRSPVTLEYDLDDAGRGHRDRALAQLLCRITGAEDACIVNNNAAAVLLMLAATASGKEVVVSRGELVEIGGAFRIPDVMRQAGCTLHEVGTTNRTHANDYRQAVNENTALLMKVHTSNYSIQGFTKAIDEAELVALGKELDVPVVTDLGSGSLVDLSQYGLPKEPMPQELIAAGVSLVSFSGDKLLGGPQAGIIVGKKEMIARLQSHPLKRALRADKMTLAALEATLRLYLHPEALSEKLPTLRLLTRSAEVIQIQAQRLQAPLVAHYGAEFAVQVMPCLSQIGSGSLPVDRLPSAALTFTPHDGRGSHLESLAARWRELPVPVIGRIYDGRLWLDLRCLEDEQRFLEMLLK | not soluble
MTTHQFEHPLNEKTRIYLRVEALLNQMERASTFSDGIQHQLFFRSLFDMLEIFEQIQLKSELAKDMEKQRLTYRSWLHVEGVDQEMLNSLLTEVDEVHRDLMSAERFGQSLKEDRFLSAIRQRFNLPGGSCCFDLPALHYWLHLPLDRKMRDAQQWMQTVTPLSNALKLWLKLTRETGHYRSRMASNGFYQSDAEDANILRLAIPLEYGVYPMISGHKNRFAIKFIDFHSGQACTQDIAFDLAVCC | not soluble
MTTNDTYEATYAIPMHCENCVNDIKACLKNVPGINSLNFDIEQQIMSVESSVAPSTIINTLRNCGKDAIIRGAGKPNSSAVAILETFQKYTIDQKKDTAVRGLARIVQVGENKTLFDITVNGVPEAGNYHASIHEKGDVSKGVESTGKVWHKFDEPIECFNESDLGKNLYSGKTFLSAPLPTWQLIGRSFVISKSLNHPENEPSSVKDYSFLGVIARSAGVWENNKQVCACTGKTVWEERKDALANNIK | soluble
MTTPGSSLPPALVDRTALAARRARMRDAALFLHHAALDEVQDRLSLVNRTFTDMAVVTPAPALWAGSFPMARFVAEDEMLDLAPQSCDLVVHAMALHWANDAVGQLIQCRRALRPDGLLLAICFGGQTLHQLRAALAEAEAQVSGGISPRVAPMAEIRDLGALLQRAGLALPVADSLTLTAEYRDLPHLMRDLRQMGEANALSARLRHPTQRAVFERAEEIYAAHFATPDNRLPATFELICLTGWAPDDSQPKPLRPGSASARLAAALGTSETPLPD | not soluble
MTTPLISIRNLCVDYITDAGDVRACNNVSFDLAPGEVFGLAGESGCGKSTVAFSLMRLHKPPAFITGGEVIFNGEDILKYSDERMQAFRWKEMSMVFQSAMNALNPVLTMEEQFCDVITRHTNMTREQAKRRAEGLLEIVDIHPSRLNDYPHQFSGGMRQRLVIAIALALNPKMIIMDEPTTALDVVVQREILQKIYALKEEFGFSILFITHDLSLMVEFSDRIGIMYSGELIEVAPSKQILETPYHPYTKGLGSSFPPLTGPKTKLTGIPGNPLNLLDIPQGCRFQARCDRVHEACTKVPTVLRQIEHGRFSNCHLYTQSNATIKR | not soluble
MTTSIQRRISIVIPCLNDAVLLEQCLSSIVAQTLQPEEVIVVDNGSTDNSVEVANRMGARVVHEPLQGITWASAAGYNSARGDLIVRFDADCVIPPDHLSQVNAIWNRTEETPGRTIVALTGTGSFDIPGRMGEWLALCYLGAYRWSTKQALGHYPIFGSNSVISRQWWEDVKDQITLSETFVHEDMYFSFFVRPHETVWFEKNLKLIMHPRALMGVRQSFIRLVRGFYTIKIAWKREPVHQRLESRRDWTLEHHHHHH | not soluble
MTTTQDWIMIGGYGPESYNQQSSYQRALLEAAKDKMTEAISANLDLDLISNRFIVADFGCASGPNTFVAVQNIIDAVEEKYLRETGQNPEDNIEFQVLFNDLRINDFNTLFQTLPPGRRYFSAGVPGSFFNRVLPKQSFHIAVMSYAFLFTSKIPKGIMDRDSPLWNKDMQCTGFNPAVKKAYLEQYSIDTKNLLDARAEELMPGGLMLLLGSCMRDGVKMSETLKGTVMDFIGESLNDLAQKGVTEQEKVDTFKTSIYFAEQGEIRQIIEENGKFTIEAFEDIIHSKNEFPLDPKTLAISFKALYGAFISAHFGIEVMRKAFELVEVKAREQISRLHKVKPGMQYLIVLRKN | soluble
MTTTSAFMLNVRLDNVAVVAIDVPGEKVNTLKAEFATQVRAILKQIRENKALQGVVFISAKADNFIAGADINMIGHCQNAQEAETLARQGQQLMAEIQALPVPVIAAIHGACLGGGLEMALACHRRICTDDVKTVLGLPEVQLGLLPGSGGTQRLPRLVGVSTALDMILTGKQLRARQALKAGLVDDVVPQTILLEAAVELAKKERLAQRTLPVRERILAGPLGRALLFRLVRKKTAQKTQGNYPATERIIDVIETGLAQGSSSGYDAEARAFGELAMTPQSQALRAIFFASTEVKKDPGSDAPPGPLNSVGILGGGLMGGGIAWVTACKGGLPVRIKDINTQGINHALKYSWDLLETKVRRRHIKASERDKQLALISGSTDYRGFSHRDLVIEAVFEDLPLKQQMVAEVEQNCAAHTIFASNTSSLPIGDIAANAARPEQVIGLHFFSPVEKMPLVEVIPHASTSAQTIATTVKLAKKQGKTPIVVSDKAGFYVNRILAPYINEAIRMLTEGERVEHIDAALVKFGFPVGPIQLLDEVGIDTGTKIIPVLEAAYGERFSAPANVVASILNDDRKGRKNGRGFYLYGEKGRKSKKQVDPAIYKLIGVQGQSRLSAQQVAERCVMLMLNEAARCFDEKVIRSARDGDIGAVFGIGFPPFLGGPFRYMDALGPGEMVATLQRLAALYGPRYAPCEQLVRMAERREHFWTNGETDQGN | not soluble
MTTVLLDSHVAYWWSAEPQRLSMAASQAIEHADELAVAAISWFELAWLAEQERIQLAIPVLSWLQQLAEHVRTVGITPSVAATAVALPSSFPGDPADRLIYATAIEHGWRLVTKDRRLRSHRHPRPVTVW | soluble
MTTWTLNHNNLTKFLTHAQLEPSLERESGLIYITVPAGEHELPLFFVIRNEGEVLQLVCYFPYQIQQNQRDTTARLLHLVNRDIDIPGFGMDEEQNIIFYRLVIPCLKGEINEDLLRVYIDTIKLICDSFFHAIGLISTGNMDLDELKKQAKLENNQSDQLEP | soluble
MTVFANRLLGPKGWLLNARVTIDGLFIASVEPDSAPLPGDVRVDTLLPAPGNLHSHSFQRAMAGMTEYRSRGRESFWTWRELMYRFLDRLTPEHVAAIAAQTFVEMQKAGYAAVGEFHYLHHRPGGGHYDDRAEMSARIVQAAAETGIGLTLLPVLYTHGGADGRALAGGQLRFGNDLDAYCTLVEGARAHTRTLAADARVGIAPHSLRAVSATDLAEVAARHPDGPVHIHIAEQTREVEEIEAAYGARPVDWLLNNAAVGPRWCLIHATHMSDAETRAMASTGAVAGLCPITEANLGDGIFNGVPYLEAGGAFGVGSDSNVLISLTEELRLLEYSQRLRDRERNVLAGAEGSTGAALYLGALRGGARALDRRAGEIAPGALADLVAIDSNAPALCALEPEQLLDGLIFAAGERVVSDLWSAGRHQVRAGRHVAEESIARRYGAALRDLLARV | not soluble
MTVKCKAEESLTCSCVDVGTIIDGSDCSVEVHQFYSTEADANAVLERLTKKARNTESDPCEIKSEIVAVENGVQLNASFTFSCQAEAMIFELANR | not soluble
